Results on 6 molecules are retold here after PMC4838878, “Super-complexes of adhesion GPCRs and neural guidance receptors” (Nature Communications, 2016).

The term stoichiometry N denotes the number of molecules, sites or subunits per partner or assembly.

T1: Lphn3^Lec–Olf DDD mutant (D397N+D399T, artificial N-linked glycosylation site at position 397) (mouse, UniProt Q80TS3-3 92-463, D397N | D399T, artificial N-linked glycan at position 397)
T1 construct: Latrophilin3, mouse, residues 92-463 (Lec and Olf domains) with two substitutions in the DDD loop
T1 sequence (looked up): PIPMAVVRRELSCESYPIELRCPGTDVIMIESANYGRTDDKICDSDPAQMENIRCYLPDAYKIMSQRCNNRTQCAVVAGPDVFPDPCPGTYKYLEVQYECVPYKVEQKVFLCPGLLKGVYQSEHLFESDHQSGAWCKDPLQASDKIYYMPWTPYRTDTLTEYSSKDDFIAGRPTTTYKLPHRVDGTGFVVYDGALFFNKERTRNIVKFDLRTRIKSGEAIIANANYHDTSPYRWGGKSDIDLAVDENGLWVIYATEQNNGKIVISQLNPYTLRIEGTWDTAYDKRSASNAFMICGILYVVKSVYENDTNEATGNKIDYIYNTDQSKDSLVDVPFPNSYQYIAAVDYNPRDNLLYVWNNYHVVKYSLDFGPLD

T2: FLRT2^LRR+Lphn3^Lec–Olf (mixed in a 1:2 molar ratio) (mouse, UniProt Q8BLU0 35-362; Q80TS3-3 92-463)
T2 construct: FLRT2, mouse, residues 35-362 (leucine-rich repeat domain); as m2; Latrophilin3, mouse, residues 92-463 (Lec and Olf domains); as m1; Analyte mixture of the SPR experiment; by SEC-MALS the two proteins alone form a 1:1 complex; also called FLRT2^LRR+wild-type Lphn3^Lec–Olf
T2 sequence (looked up) 1: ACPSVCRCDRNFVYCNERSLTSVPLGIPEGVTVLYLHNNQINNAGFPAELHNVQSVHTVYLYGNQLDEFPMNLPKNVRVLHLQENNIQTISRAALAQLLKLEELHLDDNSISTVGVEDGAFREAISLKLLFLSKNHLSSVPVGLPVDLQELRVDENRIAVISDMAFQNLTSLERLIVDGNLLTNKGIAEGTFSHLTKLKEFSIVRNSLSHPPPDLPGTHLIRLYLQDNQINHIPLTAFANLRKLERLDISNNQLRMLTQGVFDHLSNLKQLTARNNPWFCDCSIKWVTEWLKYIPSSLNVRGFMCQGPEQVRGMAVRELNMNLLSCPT
T2 sequence (looked up) 2: T1 sequence (looked up) with N306D, T308D

T3: FLRT2^LRR+Lphn3^Lec–Olf DDD mutant (mouse, UniProt Q8BLU0 35-362; Q80TS3-3 92-463, D397N | D399T, artificial N-linked glycan at position 397)
T3 construct: FLRT2, mouse, residues 35-362 (leucine-rich repeat domain); as m2; Latrophilin3, mouse, residues 92-463 with D397N+D399T; as m9
T3 sequence (looked up) 1: T2 sequence (looked up) 1
T3 sequence (looked up) 2: T1 sequence (looked up)

B1: mouse Latrophilin3 Lec+Olf (Lphn3^Lec–Olf) (domain or fragment, UniProt Q80TS3-3 92-463, looked up)
chain: T1 sequence (looked up) with N306D, T308D
notes: Latrophilin3 (Lphn3, ADGRL3), mouse, residues 92-463 (lectin and olfactomedin-like domains); pHLSec vector family; treated with endoglycosidase F1 before crystallisation; Two copies (Lphn3A, Lphn3B) stand in each 1:1:2 tetramer; also called Lphn3A^Lec–Olf; Lphn3B^Lec–Olf
B2: Lphn3^Lec–Olf DDD charge-reversal mutant (D397R, D398R and D399R) (domain or fragment, mouse, UniProt Q80TS3-3 92-463, looked up)
chain: T1 sequence (looked up) with N306R, D307R, T308R
notes: Latrophilin3, mouse, residues 92-463 (Lec and Olf domains) with three substitutions in the DDD loop
B3: mouse FLRT2 LRR domain (FLRT2^LRR) (domain or fragment, UniProt Q8BLU0 35-362, looked up)
chain: T2 sequence (looked up) 1
notes: FLRT2, mouse, residues 35-362 (leucine-rich repeat domain); pHLSec vector family; treated with endoglycosidase F1 before crystallisation
B4: rat Unc5D ectodomain (Unc5D^ecto), biotinylated at a C-terminal Avitag (domain or fragment)
chain: not shown
modifications: biotin on the C-terminal Avitag (enzymatic)
notes: signal peptide in the construct; Unc5D, rat, residues 1-382 (all extracellular domains); The form held on the streptavidin-coated CM5 chip in SPR; not shown: Avitag, C-terminal, kept
B5: rat Unc5D Ig domain 1 (Unc5D^Ig) (domain or fragment)
chain: not shown
notes: signal peptide in the construct; Unc5D, rat, residues 1-161 (Ig domain 1); Treated with endoglycosidase F1 before crystallisation
B6: rat Unc5D two Ig and TSP1 domains (Unc5D^IgIgTSP) (domain or fragment)
chain: not shown
notes: signal peptide in the construct; Unc5D, rat, residues 1-307 (Ig1, Ig2 and TSP1 domains); Deglycosylated before crystallisation

Series [1] deals with the molecule itself. The experiment in a line: crystal structure; Lphn3^Lec–Olf, FLRT2^LRR and Unc5D^Ig deglycosylated, mixed 1:1:1, SEC; crystals at 18 °C, 0.1 M sodium cacodylate pH 6.5; 6 Å (PDB 5ftu).
For series [2], the target named is B3. The experiment in a line: native MS; purified proteins mixed (FLRT2^LRR:Unc5D:Lphn3^Lec–Olf 1:1:2), 10–15 μM, 0.2 M ammonium acetate pH 7.5; Q-ToF; tandem MS of the tetramer peak at 150 V collision energy. The note with it: both partners purified.
Series [3] concerns the molecule itself. The series is described as above.
The target in series [4] is B4. The experiment in a line: SPR; Unc5D^ecto biotinylated at a C-terminal Avitag and coupled to a streptavidin-coated CM5 chip; FLRT2^LRR or FLRT2^LRR+Lphn3^Lec–Olf (1:2 molar ratio) injected; equilibrium binding, 25 °C, PBS+0.005% polysorbate 20 pH 7.5; apparent Kd, 1:1 and 1:(1:1) models, called indicative only. The note with it: both partners purified. In general terms: Surface plasmon resonance follows binding to a sensor surface in real time, without labels.

Series [5] has as its target B1. The series can be described thus: crystal structure; Lphn3^Lec–Olf, FLRT2^LRR and Unc5D^Ig deglycosylated, mixed 1:1:1, SEC; crystals at 18 °C, 0.1 M sodium cacodylate pH 6.5; 6 Å (PDB 5ftu). As to conditions: both partners purified.
The target of series [6] is T4, rat Unc5D ectodomain (Unc5D^ecto) (rat, UniProt F1LW30 31-382).
T4 construct: signal peptide in the construct; Unc5D, rat, residues 1-382 (all extracellular domains); The form used in native MS and SEC-MALS
T4 sequence (F1LW30 31-382): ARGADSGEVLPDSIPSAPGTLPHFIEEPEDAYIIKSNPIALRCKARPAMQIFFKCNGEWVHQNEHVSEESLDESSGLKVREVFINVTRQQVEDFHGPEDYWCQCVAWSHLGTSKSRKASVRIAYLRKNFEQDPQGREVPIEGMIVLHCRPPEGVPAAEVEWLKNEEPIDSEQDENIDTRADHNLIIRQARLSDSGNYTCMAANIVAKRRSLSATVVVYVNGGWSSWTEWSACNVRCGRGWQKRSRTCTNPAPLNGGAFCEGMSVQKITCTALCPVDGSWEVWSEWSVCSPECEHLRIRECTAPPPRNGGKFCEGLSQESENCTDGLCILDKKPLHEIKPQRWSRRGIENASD
The series can be described thus: SEC-MALS; proteins mixed (Lphn3^Lec–Olf:FLRT:Unc5 2:1:1) and concentrated; Superdex 200 10/30, 10 mM Tris-HCl pH 7.5, 150 mM NaCl. As to conditions: both partners purified.

Series [7] deals with B2. The series can be described thus: native MS; purified proteins mixed (FLRT2^LRR:Unc5D:Lphn3^Lec–Olf 1:1:2), 10–15 μM, 0.2 M ammonium acetate pH 7.5; Q-ToF; tandem MS of the tetramer peak at 150 V collision energy. The note with it: both partners purified.
In series [8] the target is T1, Lphn3^Lec–Olf DDD mutant (D397N+D399T, …). Described as above. The note with it: both partners purified.
In series [9] the target is T2, FLRT2^LRR+Lphn3^Lec–Olf (mixed in a 1:2 …). The experiment in a line: SPR; Unc5D^ecto biotinylated at a C-terminal Avitag and coupled to a streptavidin-coated CM5 chip; FLRT2^LRR or FLRT2^LRR+Lphn3^Lec–Olf (1:2 molar ratio) injected; equilibrium binding, 25 °C, PBS+0.005% polysorbate 20 pH 7.5; apparent Kd, 1:1 and 1:(1:1) models, called indicative only. As to conditions: both partners purified.

The target in series [10] is T3, FLRT2^LRR+Lphn3^Lec–Olf DDD mutant. The series is described as above. As to conditions: both partners purified.
Series [11] concerns the target B3. The experiment in a line: crystal structure; Lphn3^Lec–Olf, FLRT2^LRR and Unc5D^Ig deglycosylated, mixed 1:1:1, SEC; crystals at 18 °C, 0.1 M sodium cacodylate pH 6.5; 6 Å (PDB 5ftu). The note with it: both partners purified.
The target of series [12] is B3. The series can be described thus: crystal structure; Lphn3^Lec–Olf, FLRT2^LRR and Unc5D^IgIgTsp deglycosylated, mixed 2:1:1; crystals at 18 °C; 3.4 Å (PDB 5ftt). As to conditions: both partners purified.

Residue numbers refer to the chain shown, from its start. Numbers in names are those of the source. Where “and” joins values, the source holds several entries; their conditions need not be identical. Equal entries are not always repeated.

For the molecule B1, in series [1], the binding result is “binds”. In series [2], the “stoichiometry N” value is 1 and 2.

In the case of B2, the binding result in series [3] is reported as “binds”.

Take B3: in series [4], the Kd was 460 nM. The binding result in series [5], in series [7] and in [8] was “binds” in each case. The “stoichiometry N” value in [6] stood at 1.

In the case of B4, the Kd in series [9] is 94 nM. Moreover, the binding result in series [10] was “binds”.

In the case of B5, the binding result in series [11] is “binds”.

Take B6: in series [12], the binding result is on record as “binds”.
